The assay concerns the target T1, myostatin (Homo sapiens, UniProt O14793).
T1 construct: To produce mature myostatin, the pooled promyostatin was enzymatically cleaved between the propeptide and mature myostatin C terminal; made in house
T1 sequence (O14793 267-375): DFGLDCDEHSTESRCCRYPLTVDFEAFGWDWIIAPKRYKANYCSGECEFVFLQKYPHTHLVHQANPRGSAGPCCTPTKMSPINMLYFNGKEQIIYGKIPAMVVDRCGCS
As to the kind of experiment: BIAcore affinity analysis on immobilized myostatin. As to conditions: Biacore assay. The assay is classed as binding. The text has this: The antagonists including the binding agents described herein can be tested for their ability to bind myostatin and inhibit or block myostatin activity. Any number of assays or animal tests may be used to determine the ability of the agent to inhibit or block myostatin activity. Several assays used for characterizing the peptides and peptibodies of the present invention are described in the Examples below. One assay is the C2C12 pMARE-luc assay which makes use of a myostatin-responsive cell line (C2C12 myoblasts) transfected with a luciferase reporter vector containing myostatin/activin response elements (MARE). Exemplary peptibodies are assayed by pre-incubating a series of peptibody dilutions with myostatin, and then exposing the cells to the incubation mixture. The resulting luciferase activity is determined, and a titration curve is generated from the series of peptibody dilutions. The IC50 (the concentration of peptibody to achieve 50% inhibition of myostatin activity as measured by luciferase activity) was then determined. […]
Direct binding assays were used to screen and rank the peptibodies in order of their ability to bind to immobilized myostatin. […] Peptibody binding kinetic parameters including ka (association rate constant), kd (dissociation rate constant) and KD (dissociation equilibrium constant) were determined using the BIA evaluation 3.1 computer program (Biacore, Inc.). […]

By Kd is commonly meant the equilibrium constant for the complex coming apart.

B1: ActRIIB/Fc: soluble receptor fusion protein actRIIB/Fc (R &D Systems) (protein)
chain: SGRGEAETRECIYYNANWELERTNQSGLERCEGEQDKRLHCYASWRNSSGTIELVKKGCWLDDFNCYDRQECVATEENPQVYFCCCEGNFCNERFTHLPEAGGPEVTYEPPPTAPT
modifications: left off: a dimerising Fc or GST
B1 gave a Kd of approximately 7 nM.

Values taken from patent US20160038588A1, “Myostatin Antagonism in Human Subjects” (AMGEN INC., priority 2013, published 2016).
